Our source for the Km values is PMC5372246, “Co-production of hydrogen and ethanol from glucose in Escherichia coli by activation of pentose-phosphate pathway through deletion of phosphoglucose isomerase (pgi) and overexpression of glucose-6-phosphate dehydrogenase (zwf) and 6-phosphogluconate dehydrogenase (gnd)” (Biotechnology for Biofuels, 2017).

This series relates to T1, NC(=O)c1ccc[n+]([C@@H]2O[C@H](COP(=O)(O)OP(=O)(O)OC[C@H]3O[C@@H](n4cnc5c(N)ncnc54)[C@H](OP(=O)(O)O)[C@@H]3O)[C@@H](O)[C@H]2O)c1.
T1 construct: full-length, C-terminal His-tag, Ni-NTA purified from E. coli, 55 kDa on SDS-PAGE
Nature of the series: purified protein. It counts as biochemical, Escherichia coli. The following applies: co-substrate glucose-6-phosphate, general assay: Tris-HCl pH 7.5, 1 mM MgCl2, 30 °C.

One may read the Km as the substrate concentration at which the rate is half of its maximum. As for “Zwf (ZE), glucose-6-phosphate dehydrogenase (Escherichia coli K-12)”, the Km was found to be 15 µM.
